Laboratory results taken from patent US20260137799A1, “ANTI-MUC1* ANTIBODY DRUG COMPLEXES AND USES THEREOF” (Minerva Biotechnologies Corporation, priority 2023, published 2026).

Legend:
[1] = target: PSMGFR N-10 peptide (SEQ ID NO: 2) (Homo sapiens, UniProt P15941); assay: ELISA binding to PSMGFR N-10 peptide
Source text: Cancer selective anti-MUC1* antibodies bind to a membrane proximal conformational epitope within the MUC1* extracellular domain, as described in WO 2020/146902.
(§1) The 3C2B1 epitope was mapped more precisely with additional PSMGFR peptide variants (FIGS. 2A, 2B).

[2] = target: PSMGFR N-30 (SEQ ID NO: 157) (Homo sapiens, UniProt P15941); assay: Epitope mapping, binding to PSMGFR N-30 peptide
Source text: (§2) FIG. 2B quantifies binding of the 3C2B1 anti-MUC1* antibody to the peptides of FIG. 2A.
as §1

[3] = target: PSMGFR N-19 C-5 (SEQ ID NO: 159) (Homo sapiens, UniProt P15941); assay: Epitope mapping, binding to PSMGFR N-19 C-5 peptide
PSMGFR N-19 C-5 (SEQ ID NO: 159), sequence (P15941 1129-1149 limits assumed): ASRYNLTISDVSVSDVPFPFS
Source text: as §2, §1

T47D-MUC1*45 cells = assay: Antibody internalization (pHrodo Deep Red), T47D-MUC1*45; assay type: cell-based, human
Description: Antibodies C2 and 3C2B1 were tested for their ability to be internalized by T47D breast cancer cells (T47D-wt) or T47D cells that were engineered to express high levels of a recombinant MUC1* polypeptide with a 45 amino acid extracellular domain (T47D-MUC1*45), as described in WO2010042562 and WO2010042891. […] C2 internalization was detected within 2.5 hours in T47D-wt cells (FIGS. 3A-3F) and was increased by MUC1*45 expression (FIGS. 3G-3L). […] Unexpectedly, MUC1*45 expression inhibited 3C2B1 internalization (FIG. 3S-3X).
Antibodies C2 and 3C2B1 were coupled to a pH sensitive fluorophore using the pHrodo Deep Red TFP Ester kit (Thermo cat #P35356), according to manufacturer instructions. Cancer cells were seeded at ˜50,000 cells/well onto μ-Slide 8-well tissue culture-treated, chambered coverslip wells (Ibidi 80806) in their recommended media with 10% FBS. Cells were cultured for 48 hours. Slides were transferred into microscope chamber (37° C.—5% CO2) and equilibrated for ˜30 minutes. […]
(§3) Internalization of the fluorescently labeled antibodies was quantified as follows. […] The integrated pixel density (mean gray-scale value×area) was then measured by the ImageJ software. Positively-stained cells were manually counted and the integrated pixel density was divided by the number of positive cells to yield “Pixel Intensity per positive cell”.

H1975-MUC1*45 cells = assay: Antibody internalization (pHrodo Deep Red), H1975-MUC1*45; assay type: cell-based, human
Description: Antibodies C2 and 3C2B1 were tested for their ability to be internalized by H1975 lung cancer cells (H1975-wt) and H1975 cells that were engineered to express high levels of a recombinant MUC1* polypeptide with a 45 amino acid extracellular domain (H1975-MUC1*45). In contrast to the T47D breast cancer cells, H1975-wt cells internalized 3C2B1 faster than they internalized C2 (FIGS. 4A1-4A28, 4C1-4C28 and 4E). Two (2) hours post incubation with H1975-wt cells, […] the cells had internalized C2. […] Similar to the T47D cells, MUC1*45 expression increased the internalization rate of C2 and decreased the internalization rate of 3C2B1 (FIGS. 4B1-4B28, 4D1-4D28 and 4E).
(§4) Antibodies C2 and 3C2B1 were coupled to a pH sensitive fluorophore using the pHrodo Deep Red TFP Ester kit (Thermo cat #P35356), according to manufacturer instructions. Cancer cells were seeded at ˜50,000 cells/well onto μ-Slide 8-well tissue culture-treated, chambered coverslip wells (Ibidi 80806) in their recommended media with 10% FBS. Cells were cultured for 48 hours. Slides were transferred into microscope chamber (37° C.—5% CO2) and equilibrated for ˜30 minutes. The pHrodo Deep Red coupled antibody was then diluted to a concentration of 200 to 300 μg/mL into pre-warmed media supplemented with 10% FBS. Media was removed from the chamber slides and the diluted antibodies were separately added. Fluorescent (655 nm) and phase contrast images at were collected every 10 min for 12h or 16 h with a Leica Thunder Live Cell 3D microscope.
Internalization of the fluorescently labeled antibodies was quantified as follows. Images were imported into ImageJ. The selection tool was used to draw a region of interest (ROI) on the image. The integrated pixel density (mean gray-scale value×area) was then measured by the ImageJ software. Positively-stained cells were manually counted and the integrated pixel density was divided by the number of positive cells to yield “Pixel Intensity per positive cell”.

[4] = system: HPAFII pancreatic cancer cells; assay: Antibody internalization (pHrodo Deep Red), HPAFII; assay type: cell-based, human
Description: Internalization of antibody 3C2B1 into HPAFII pancreatic cancer cells (FIGS. 5A-5G) and OE19 esophageal cancer cells (FIGS. 5H-5N) was detectable after 8 hours and nearly complete at 16 hours. The results are quantified in FIG. 5O.
as §4, with “Fluorescent (655 nm) and phase contrast images at were collected every 10 min for 12h or 16 h with a Leica Thunder Live Cell 3D microscope.” left out
as §3

breast cancer specimens = assay: IHC of tissue microarray, breast cancer; assay type: binding, human; conditions: 109 specimens, antibodies at 15 μg/mL
Source text: (§5) Tissue microarrays are typically made up of hundreds of tissue specimens, where each specimen in the array comes from a different patient. The breast cancer array contained patient specimens of all types of invasive breast cancers, including less common forms such as carcinomas with medullary features and papillary carcinomas. The lung cancer array contained specimens from patients diagnosed with squamous cell carcinoma, adenocarcinoma, mucinous adenocarcinoma, adenosquamous carcinoma and large cell carcinoma. The pancreatic cancer tissue microarray contained specimens from patients with ductal adenocarcinomas.
Of the 109 breast cancer specimens, 56 stained positive with C2, 3C2B1, or both. Twenty-two (22) of the specimens stained robustly with C2 and stained less well or not at all with 3C2B1. The converse, 3C2B1 staining better than C2, was true in only 5 of the 109 specimens. Twenty-nine (29) specimens were stained essentially the same with C2 and 3C2B1 antibody.
(§6) Cancerous tissue arrays were purchased from Tissue Array (Derwood, MD). After deparaffinization, antigen retrieval (pH 6.0) was performed for 10 min. The sections incubated in blocking buffer (10% normal goat serum and 5% BSA in TBS) at room temperature for 1 hr before incubating in either C2 or 3C2B1 in 1% BSA-TBS overnight at 4° C. In this particular assay, both antibodies were used at a concentration of 15 μg/mL. […]

lung cancer specimens = assay: IHC of tissue microarray, lung cancer; assay type: binding, human; conditions: 108 specimens, antibodies at 15 μg/mL
Source text: as §5
Of the 108 lung cancer specimens, a total of 61 stained positive with C2, 3C2B1, or both. […] The converse, C2 staining better than 3C2B1, was true in only 5 of the 108 specimens, and these specimens stained weakly with both antibodies. A total of 37 specimens were stained essentially the same with 3C2B1 and C2 antibody.
as §6

[5] = system: pancreatic cancer specimens; assay: IHC of tissue microarray, pancreatic cancer; assay type: binding, human; conditions: 40 specimens, antibodies at 15 μg/mL
Source text: as §5
Similar to the lung cancer results, antibody 3C2B1 stained pancreatic cancers better than C2. Of the 40 specimens from 40 different pancreatic cancer patients, 27 were positively stained by C2, 3C2B1, or both. Eighteen (18) stained more robustly with 3C2B1 than C2 or were not stained by C2 at all. One specimen stained slightly better with C2 and 8 specimens stained essentially the same with either antibody.
as §6, with “C.” for “C. In this particular assay, both antibodies were used at a concentration of 15 μg/mL.”

PSMGFR N-10 peptide (SEQ ID NO: 2), sequence (P15941 1120-1154 limits assumed): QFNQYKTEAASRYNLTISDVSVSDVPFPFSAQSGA

B1: 3C2B1: anti-MUC1* monoclonal antibody that bound to the PSMGFR peptide (antibody, V domains shown)
VH: EVMLVESGGGLVKPGGSLKLSCAASGITFSTYTMSWVRQTPEKRLEWVATISTGGDKTYYSDSVKGRFTISRDNAKNNLYLQMSSLRSEDTALYYCARGTTAMYYYAMDYWGQGTSVTVSS
VL: DIVLTQSPASLAVSLGQRATISCRASKSISTSDYNYIHWYQQKPGQPPKLLIYLASNLESGVPARFSGSGSGTDFTLNIHPVEEEDAATYYCQHSRELPLTFGAGTKLELK
In the case of B1, the “binding to PSMGFR N-10” value [1] is reported as “bind”, the “binding to N-30 variant PSMGFR peptide” value [2] is reported as “bound” and the “binding to N-19 C-5 variant PSMGFR peptide” value [3] is reported as “bound”. The “effect of MUC1*45 expression on internalization” value (T47D-MUC1*45 cells; T47D-MUC1*45 vs T47D-wt) was “inhibited”, the “fraction of cells that internalized detectable antibody” value (T47D-MUC1*45 cells; T47D-MUC1* cells, after 14 hours) was “Less than half” and the “time by which essentially all the cells had internalized the antibody” value (H1975-MUC1*45 cells; H1975-MUC1*45 cells) was 8 h. The “effect of MUC1*45 expression on internalization rate” value (H1975-MUC1*45 cells; H1975-MUC1*45 vs H1975-wt) was “decreased”, the “time after which internalization was detectable” value [4] was 8 h and the “time at which internalization was nearly complete” value [4] was 16 h. The “3C2B1 > C2 (number of specimens stained better with 3C2B1)” value (breast cancer specimens) was 5, the “3C2B1 > C2 (number of specimens stained better with 3C2B1)” value (lung cancer specimens) was 19 and the “3C2B1 > C2 (number of specimens stained better with 3C2B1)” value [5] was 18.
